According to the nanobody polyreactivity screen of Harvey et al. (2022):

Assay: yeast display, Sf9 membrane polyspecificity reagent, FACS + sequencing; frameworks hold sequencing errors
In short: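 Genes from sorted yeast were amplified by colony PCR, read by MiSeq 2 × 250 sequencing and filtered on CDR length. These cells carried a synthetic nanobody library in Saccharomyces cerevisiae BJ5465 and were sorted by FACS into low and high (top ~1%) gates on anti-HA and streptavidin fluorescence. Polyreactivity is labelled according to the gate of origin.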

Row | Sequence | polyreactivity (PSR sort gate)
1 | QVQLVESGGGLVQAGGSLRLSCAASGLTFDKIAMGWYRQAPGKERELVAAISTSGGGTYYADSVKGRFTISRDNPKTTVYLQRNSLKPEDTAVYYCAAKHYYYSPYVRYDPPPGYYWGQGTQVTVSS | high polyreactivity
2 | QVQIVESGGGLVQAGGSLRLSCAASGSSFTLYALGWYRQAPGKERELVAAISWSTTSTYYADSVKGRFTISRDNAKNTVYLQMNSLKPEDTAVYYCNARHWPLAYEYWGQGTQVTVSS | high polyreactivity
3 | QVQLVESGGGLVQAGGSLRLSCAASGLTFRSYAMGWYRPAPGKEREFVAAITGSGDTTYYADSVKGRFTISRDNAKNTVYLQMNSLKPEDTAVYYCNADRDYLWITLYEYWGQGTQVTVSS | high polyreactivity
4 | QVQLVESGGGLVQAGGSLRLSCAASGFTFQWYAMGWYRQAPGKERELVAGITSGASTNYADSVKGRFTISRDNAKNNVYLQMNSLKPEDTAVYYCAAGYKSRYYRNSGYYWGQGTQVTVSS | high polyreactivity
5 | QVQLVESGGGLVQAGGSLRLSCAASGSTFADYAMGWYRQAPGKERELVAAITGDGGNTYYADSVKGRFTISRDTAKNTVYLQMTSLKPEDTAVYYCAAEHESGAYYYWGLGTQVTVSS | high polyreactivity
6 | QVQLVESGGGLVQAGGSLRLSCAASGRIFYVNAMGWYRQAPGKERELVAAIRSAGGTYYADSVKGRFTISRDNAKNTVYLEMNWLNPEDSAVYYCNADASYREYRLYLIEMDYLGQGTQVTVSS | high polyreactivity
7 | QVQLVESGGGLVQAGGSLRLSCAASGSTFSFYAMGWYRQAPGQERELVAAIRAGTRTYYADSVKGRFTISRDNAKNTVYLQMNSLKPEDTAVYYCAATRRRYPYYYWGQGTQVTVSS | high polyreactivity
8 | QVQLVESGGGLVQAGGSLRLSCAASGFTFTNYVMGWYRQAPGKETELVAAIRRSGDSTYYADSVKGRFTISRDNAKNTVYLQMNSLKPEATAVYYCNAVAYGRTYDYWGQGTQVTVSS | high polyreactivity
9 | QVQLVESGGGLVQSGGILRLSCAASGGTFYANAMGWYRQAPGKERELVAAITSGGSTNYADSVKRRFTISRDNAKNTVSLQMNSLKPEDTAVYYCNASAQRRYWHSYFRRYDYWGQGTQVTVSS | low polyreactivity
10 | QVQLVESGGGLGQAGGSLRLSCAASGSTFEGYAMGWYRQAPGKERELVAAISSSGGRTYYADSVKGRFTISRDNAKNTVYLQMNSLKPEDTAVYYCAADVSTAAVRSDSWGQGTQVTVSS | low polyreactivity
11 | QVQLVESGGGLVQAGGSLRLSCAASGITFSRNAMGWYRQAPGKERELVAVISTRGGRTYYADSVKGRFTISRDNAKNTVYLQMNSLKPEDTAVYYCAARSTYYRQQRGYDYWGQGTQVTVSS | high polyreactivity
12 | QVHLVESGGGLVQAGGSLRLSCAAYGSTFTWYARGWYRQAPGKERELVADISYGGGSTYYADSVKGRFTISRDNAKNTVYLQMNSLKPEDTAVYYCAAESIPYYRYDYWGQGSQVTVSS | low polyreactivity
13 | QVQLVEAGGGLVQAGGSLRLSCAASGSIFFIYAMGWYRQAPGKERELVAAITSGDRTYSADSVKGRFTISRDNAKNTVYLQMNSLKPEDTAVYYCNADYYISYWGQGTQVTVSS | low polyreactivity
14 | QVQLVESRGGLVQAGGSLRLSCDASGFIFTLYAMGWYRQAPGKERELVASIRGSGGNTYYADSVKGRFTISRDNAKNTVYLQMNSLKPEDTAVYYCAARTYRRPYSSWGQGTQVTVSS | high polyreactivity
15 | QVQLVESGGGLVQAGGSLRLSCADSGFIFWVYAMGWYRQAPGKERELVAAITSGGGSTYYADSVKGRFTISRDNAKNTVYLQMNSLKPEDTAVYYCATSLYTDNSWENYWGQGTQVTVSS | high polyreactivity
16 | QVQLVESGGGLVQAGGSLRLSCAASGSIFSQYAMGWYRQAPGKERELVAAIRTGGRTHYADSVKGRFTISRDNAKKTVYLQMNSLKPEDTAVYYCAAQARYYWGTTYEYWGQGTQVTVSS | high polyreactivity
17 | QLQLVESGGGLLQAGGSLRLSCAASGSTFVSNAMGWYRQAPGKERELVATITTSGGSTYYADSVKGRFRNSRDNAKTTVYLQMNSLNPEDTAVYYCNAVYLFCYSGDLDYWGQGTQVTVSS | low polyreactivity
18 | QVQLVESGGGLVQAGGSLRLSCAASGLTFEYYDMGWYRQAPGKERELVAAITGSDDSTYADSVKGRFTISRDNAKNTVYLQMNSLKPEDTAVYYCAASYRAWSGNYWGQGTQVTVSS | high polyreactivity
19 | QVQLVESGGGLVQAGGSLRLSCAASGSIFGGNAMGWYRQAPGKEREFVARITKRGGSTDYADSVKGRFTISRDNAKNTVYLQMNSLKPEDTAVYYCATGWTSKVHYRYGYWGQGTQVTVSS | high polyreactivity
20 | QVQLVESGGGLVQAGGSLRLSCAASGRIFYYNTMGWYRQAPGKERELVARITYSGGRTYYADSVKGRFTISRDNAKNTVYLQMNSLKPEDTAVYYCNAKPRYYQTGGGYWGQGTQVTVSS | high polyreactivity
21 | QVQLVESGGGLVQAGGSLRLSCAASGFTIGYNVMGWYRQAPGKERELVATISWNGARTYYADSVKGRFTISRDNAKNTVYLQMNSLKPEDTAVYYCAARRYYRGEYDYWGQGTQVTVSS | low polyreactivity

Row | Sequence | polyreactivity (PSR sort gate)
22 | QVQLVESGGGLVQAGGSLRLSCAASGSTFKYYAMGWYRQAPGKERELVASITSGGSTYYADSVKGRFTISRDNAKNTVYLQMNSLKPEDTAVYYCNKRWITSYYTRYDYWGQGTQVTVSS | high polyreactivity
23 | PVQLVESGGGLVQAGGSLRLSCAASGSIFFGYAMGWYRQAPGKERELVAAFNGSVITSYADSVKGRFTISRDNAKNPVYVQMNSLKPEDTAYYCNTGSTWGAVIANYDHWGQGTQVTVSS | low polyreactivity
24 | QLQLVESGGGIVQAGGSLRLSCAASGSIFPYNAMGWYRQAPGKEREFVAAINLSGGSTNYADSVKGRFTISRDNANYTFYLQMNSLKPEDTAVYYCNAPVVYFLPLNFDYWGQGTKVTVSS | low polyreactivity
25 | QVQLVESGGGLVQAGGSLRLSCAASGYIIRGYVMGWYRQAPGKERELVAAITSRGDSTYYADSVKGRFTISRDNAKNTVYLQMNSLIPEDTAVYYCYFYFRRQYEHEYWGQGTQVTVSS | high polyreactivity
26 | QVHLVESVGGLVQAGGSLRLSSAASGIIFRSNAMGWYRQAPGKERELVAAISSRGSSTNYADSVKGRFTISRDNAKNTVYLQMNSLNPEDTAVYYCNARGSRVDQTESEYWGQGTQVTVSS | high polyreactivity
27 | QVQLVESGGGLVQAGGSLRLSCAASGSIFVFYARGWSRQAPGKERELVAAITSGGRTYYADSVKGRFTISRDNAKNTVYLQMNSLKPEDTAVYYCNAVRFYSIGLGQDDYWGQGTQVTVSS | low polyreactivity
28 | QVQLVESGGGLVQAGGSLRLSCAASGSTFLGNAMGWYRQAPGKERELVATITGSSGSTYYADSVKGRFTISRDNAKNTVYLQMNSLKPEDTAVYYCNTVYNYWDGYDYWGQGSQVTVSS | low polyreactivity
29 | QVQLVESGGGLVQAGGSLRLSCAASGSTYNNAMGWYRQAPGKERELVAAIRWSGGSTYYADSVKGRFTISRDNAKNTVYLQMNSLKPEDTAVYYCAARYRWSRKRYNDYDYWGQGTQVTVSS | high polyreactivity
30 | QVQLVESGGGLVQAGGSLRLSCAASGRTFYYNAKGWYRQAPGKERELVARITSSGGSTYYADSVKGRFTISRDTSKNTVFLQMNSLKPEDTAVYYCAAGRSRYLWFGRDFDYWGQGTQVTVSS | low polyreactivity
31 | QVQLEESGGGLVQAGGSLRLSCAASGSTFSRYAMGWYRPAPGKEREFVAAISRRAGGTYYADSVKGRFTISRDNAKNTVYLQMNSLKPEDTAVYYCATVLPRDYIGRATYDYWGQGTQVTVSS | high polyreactivity
32 | QVQLVESGGGLVQPGGSLRLSCAASGSTFGGYAKGWYRQAPGQERELVAAITWDTGTTYYADSVKGRFTISRDNAKNTVYLQMNSLKPEDTAVYYCAAVGSTTTGVRRRGYWGQGTQVNVSS | high polyreactivity
33 | QVQLVESGGGLVQAGGSLRLSCAASGSIFYEYAMGWYRQAPGKERELLASINRGGGSTYYADSVKGRFTISRDNAKNTVYLQMNSLKPEDTAVYYCAAQWKYRQSYLDYYWGQGTQVTVSS | low polyreactivity
34 | QVQLVESGGGVVQAGGSLRLSCAASGTFYLYAMGWYRQAPGKERELVAAISGSGSTNYADSVKGRFTISRDNAKNTVYLQMNSLKPEDTAVYYCAAYQRYDSVTGARYEYDYWGQGTQVTVSS | low polyreactivity
35 | QVQLEESAGGLVQAGGSLRLSCAASGSIFRVYGMGWYRQAPGKVTELVASITYRGGNTYYADSVKGRFTISRDNAKNTVYVQMNSLKPEDTAVFDCARSGYQKVGGFRSDYWGQGTEVTVSS | low polyreactivity
36 | QVQLVESGGGLVQAGGSLRLSCAASGSIFSYYAMGWYRQAPGKERELVAAITTGGGTYYADSVKGRFTISRDNAKNTVYLQMNSLKPEDTAVYYCAKDGYPDQDVQVFNDSDYWGQGTQVTVSS | low polyreactivity
37 | QVQLVESGGGLVQAGGSLRLRCAASGRTFKVYAMGWYRQAPGKERELVAAISYSGAGTRYADSVKGRFTISRDNAKNTVYLQMNSLKPEDTAVYYCNTDAWARVKRYEYWGQGTQVTVSS | low polyreactivity
38 | QVQLVESGGGLVQAGGSLRLSCAASGSILIWNTMGWYRQAPGKERELVAAISSGASTYYADSVKGRFTISRDNAKNTVYLQMNSLKPEDTAVYYFYVDLPRVLTDDSWGQGTQVTVSS | low polyreactivity
39 | QVQLVESGGGLVQAGRSLRLSCAASGRIFADYAMGWYRQAPGKERQLVAAITSGGTTYADSVKGRFTISRDNAKNTVYLQMNSLKPEDSAVYYCAAQGQGRTGGFGKGSTYGYWGQGTQVTVSS | low polyreactivity
40 | QVQLVETGGGLVQAGGSLRLSCAASGITFYYYAMGWYRQAPGKERELVAAINSGGITNYADSVKGRFTLSRDIAKKTVYLQMNSLKPEDTAVYYCAASSGFRYRYGYWGQGTQVTVSS | high polyreactivity
41 | QVQLVESGGGLVQAGGSLRLSCAASGSIFGDYAMGWSSQAPGKEGELVAAISRGDGTYYADSVKGRFTISRDNAKNTVYLQMNSLKPEDTAVYYCNAGGRYHAPSGDFWGQGSQVTVSS | low polyreactivity
